Reference: doi:10.1101/2021.03.01.433427 (bioRxiv, 2021)

Molecular target: the molecule itself
Test: solid state NMR

B1: His-tagged TDP-43-LC (low complexity domain of the TAR DNA-binding protein 43, residues 262-414) (domain or fragment)
chain: PKHNSNRQLERSGRFGGNPGGFGNQGGFGNSRGGGAGLGNNQGSNMGGGMNFGAFSINPAMMAAAQAALQSSWGMMGMLASQQNQSGPSGNNQNQGNMQREPNQAFGSGNNSYSGSNSGAAIGWGSASNAGSGSGFNGGFGSSMDSKSSGWGM
B1: binds.
